Measurements taken from the supplement of paper PMC9942255.
Values joined by “and” are separate entries in the source; they are usually repeats but may differ in a detail not shown here. Equal entries are not always repeated.

Tested on: Bacillus subtilis DB104 (SP-AmyQ fusion secretion)
Assay: AmyQ secretion efficiency, weighted average sort bin (1 = best secretion, 10 = worst) (bin number (weighted average, 1-10)); higher = lower secretion efficiency
Summary of the method: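 B. subtilis DB104 library expressing mature AmyQ fused to designed signal peptides (amyE-integrated) was encapsulated at about 0.3 cells per ~65 nL alginate bead with fluorescein-starch, grown about 13 h at room temperature and nile red stained. Occupied beads were sorted by large-particle flow cytometry into 10 equally populated bins by green/red fluorescence ratio, and each bin's amplicons were Illumina-sequenced. Secretion score is the read-frequency-weighted average bin number, normalised to beads per bin, excluding low-abundance sequences.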

Sequence	AmyQ secretion efficiency
MKRMIVRMTLPLLIVCLAFSSFSASARVASE	4.86
MKRMIVRMTLPLLIVCLAFSSFSASTRAASE	2.26
MKRMIVRMTLPLLIVCLAFSTSFSASARAASE	2.38
MKRMIVRMTTPLLIVCLAFSSFSASARAASE	2.03
MKRNIFNNINLSLLSTLLIGIMLLTFAPSAFAKQD	2
MKRNLTITMFILVLSFLSIIVAYPIQTNASPM	5.49
MKRQCYWTYQSSRQLVLLPGKALGAVD	8.11
MKRQGKSKSYAAVILSGWFIADHQTHSQEM	7.16
MKRQKQKASLVLFAVVFVFAVKGAPAKAETH	2.05
MKRQKQKYLLLGILCSAAVFLIGAPSRALGAEV	3.43
MKRQRLLVSLRVWMVFLMNWVTPDRKTAAAAVY	6.95
MKRQSQTLSFLSIIVAYPIQTNASPM	8.43
MKRRFMKASLVLFAVVFVFAVKGAPAKAETH	2.6
MKRRKKKVLTGSVLSLGLLVSASPAFATSP	1.34
MKRRKNVCLTALLSVLLVAGSVPFHAEAKKP	2.59
MKRRKRRYLLLGILCSAAVFLIGAPSRALGAEV	1.61
MKRRKTAYLLLGILCSAAVFLIGAPSRALGAEV	2.77
MKRRKVLTGSVLSLGLLVSASPAFATSP	2.61
MKRRLSTLLIGIMLLTFAPSAFAKQD	1.82
MKRRRKPYTKKLALGAALTIAPLSFASAEEN	6.27
MKRRRQRQTTLPLLIVCLAFSSFSASARAASE	3.83
MKRRRRKIWTIILGALLVCCIAVAYTLTKSQAGASSS	5.49
MKRRRRKLLSTLLIGIMLLTFAPSAFAKQD	1.81
MKRRRRPMRLALGAALTIAPLSFASAEEN	5.86
MKRRRRRFILVLSFLSIIVAYPIQTNASPM	2.07

Sequence	AmyQ secretion efficiency
MKRRRSIFITCLLITLLTMGGMIASPASAAGT	2.4
MKRRTRYKKQVVGILLSLAFVLFVFSFSERHE	6.68
MKRSIFITCLLITLLTMGGMIASPASAAGT	2.08
MKRSIMLSNIIILLVSLRVWMVFLMNWVTPDRKTAAAAVY	6.91
MKRSINSIFITCLLITLLTMGGMIASPASAAGT	1.88
MKRSIRTGTYCLLITLLTMGGMIASPASAAGT	3.22
MKRSISIFITCLLITLLKRKGMIASPASAAGT	5.06
MKRSISIFITCLLITLLKRKKRRASPASAAGT	6.57
MKRSISIFITCLLITLLTMGGMIASPASAAGT	3.79 and 2.48 and 2.42
MKRSISIFITCLLITLLTMGGMIASPASAEDE	2.08
MKRSISIFITCLLITLLTMGGMIASPASEAGT	4.1
MKRSISIFITCLLITLLTMGGMIASPASIAGT	4.57
MKRSISIFITCLLITLLTMGGMIASPASTAGT	4.46
MKRSISIFITCLLITLLTMGGMIASPRSAAGT	2.42
MKRSISIFITCLLITLLTMGGMIASPTSAAGT	2.97
MKRSISKRKRCKKITLLTMGGMIASPASAAGT	6.02
MKRSISRKITCLLITLLTMGGMIASPASAAGT	2.01
MKRSISRRRKCLLITLLTMGGMIASPASAAGT	2.97
MKRSMLFILVLSFLSIIVAYPIQTNASPM	2.84
MKRSSGKQLIGIMLLTFAPSAFAKQD	3.5
MKRSYVSLRVWMVFLMNWVTPDRKTAAAAVY	6.51
MKRTLPLLIVCLAFSSFSASARAASE	2.25
MKRTRIPMYLALGAALTIAPLSFASAEEN	3.6
MKRTSTAYLLLGILCSAAVFLIGAPSRALGAEV	2.85
MKRTTNLTMLCLWFTVFSLFLVLLPGKALGAVD	4.04

Sequence	AmyQ secretion efficiency
MKRTWNGCGQGQLSVLLVAGSVPFHAEAKKP	2.05
MKRTWNRCGSSYKTYYLVAGSVPFHAEAKKP	6.5
MKRTWNRQRKVCLTALLSVLLVAGSVPFHAEAKKP	2.09
MKRTWNTCLTALLSVLLVAGSVPFHAEAKKP	2.37
MKRTWNTTTVCLTALLSVLLVAGSVPFHAEAKKP	2.17
MKRTWNVCKRALLSVLLVAGSVPFHAEAKKP	3.1
MKRTWNVCLIALLMVLLVAIFVTSPFHAEAKKP	2.11
MKRTWNVCLTALLSVLLVAGSVDDHAEAKKP	1.97
MKRTWNVCLTALLSVLLVAGSVGFVAEAKKP	3.4
MKRTWNVCLTALLSVLLVAGSVKRKKHAEAKKP	7.43
MKRTWNVCLTALLSVLLVAGSVPFHAEAAKK	2.52
MKRTWNVCLTALLSVLLVAGSVPFHAEAAPD	2.13
MKRTWNVCLTALLSVLLVAGSVPFHAEAAPK	2.29
MKRTWNVCLTALLSVLLVAGSVPFHAEAKKK	2.67
MKRTWNVCLTALLSVLLVAGSVPFHGEAKKP	2.79
MKRTWNVCLTALLSVLLVAGSVPFHMEAKKP	2.19
MKRTWNVCLTALLSVLLVAGSVPFHVEAKKP	2
MKRTWNVCLTALLSVLLVAGSVPSHAEAKKP	1.85
MKRTWNVCLTALLSVLLVAGSVRRRRKRKHAEAKKP	8.2
MKRTWNVCLTALLSVLLVAGSVTFHAEAKKP	2.82
MKRTWNVCLTALLSVLLVAGSVTLVAAPFHAEAKKP	2.5
MKRTWNVCLTALLSVLLVAGSVVPFHAEAKKP	1.9
MKRTWNVCLTALLSVLLVAPFHAEAKKP	4.3
MKRTWNVCLTALLSVPFHAEAKKP	6.8
MKRVCLTALLSVLLVAGSVPFHAEAKKP	2.1

Sequence	AmyQ secretion efficiency
MKRVLTGSVLSLGLLVSASPAFATSP	1.56
MKRWMRKTLVVLFTIVTFGLVSPPAALMADKP	2.03
MKRYKQRLRVWMVFLMNWVTPDRKTAAAAVY	6.82
MKRYRQKCLLLVTIMFLGVLFGMQQANHG	5.69
MKRYYVRMTLPLLIVCLAFSSFSASARAASE	2.74
MKSAKSVSALTPSTTLAITAKAKEL	6.91
MKSCKQKQVCSLAAILLLIPSVSFAADS	6.15
MKSCKQLIVCSLAAILLLDPQPSFAADS	4.16
MKSCKQLIVCSLAAILLLIPSVAFAADS	2.83
MKSCKQLIVCSLAAILLLIPSVSFAADD	2.66
MKSCKQLIVCSLAAILLLIPSVSFAAPD	2.43
MKSCKQLIVCSLAAILLLIPSVSFAAPR	1.96
MKSCKQLIVCSLAAILLLIPSVSFAKRK	2.42
MKSCKQLIVCSLAAILLLIPSVSFGADS	3.57
MKSCKQLIVCSLAAILLLIPSVSFSADS	4.65
MKSCKQLIVCSLAAILLLIPSVSFSTSTGASSFAADS	6.07
MKSCKQLIVCSLAAILLLIPSVWFAADS	4.55
MKSCKQLIVCSLAAILLLKRKKKRSFAADS	7.68
MKSCKQLIVCSLAAILLLLSLTFIPSVSFAADS	3.91
MKSCKQLIVCSLAAILLLPPEVSFAADS	2.83
MKSCKQLIVCSLAAILLLRRKVSFAADS	7.65
MKSCKQLRRCKRRRILLLIPSVSFAADS	7.57
MKSCKQYKRCQYSSILLLIPSVSFAADS	7.62
MKSKGSIMACKKKKSFTITTFINTETISAFSN	7.29
MKSKGSIMACKRLFSFTITTFINTETISAFSN	6.73

Sequence	AmyQ secretion efficiency
MKSKGSIMACLILFLFMIFTFINTETISAFSN	5.32
MKSKGSIMACLILFSFTITDEINTETISAFSN	6.09
MKSKGSIMACLILFSFTITEDEEEETISAFSN	6.65
MKSKGSIMACLILFSFTITEISAFSN	6.82
MKSKGSIMACLILFSFTITGDPNTETISAFSN	4.93
MKSKGSIMACLILFSFTITIILVTLIIVATFINTETISAFSN	6.84
MKSKGSIMACLILFSFTITRKKRKKTISAFSN	7.38
MKSKGSIMACLILFSFTITSTVSATTFINTETISAFSN	6.02
MKSKGSIMACLILFSFTITTFIAFITISAFSN	5.09
MKSKGSIMACLILFSFTITTFINEISAFSN	6.8
MKSKGSIMACLILFSFTITTFINTETASAFSN	4.22
MKSKGSIMACLILFSFTITTFINTETCSAFSN	4.49
MKSKGSIMACLILFSFTITTFINTETESAFSN	7.01
MKSKGSIMACLILFSFTITTFINTETFSAFSN	7.43
MKSKGSIMACLILFSFTITTFINTETGSAFSN	5.58
MKSKGSIMACLILFSFTITTFINTETGSISAFSN	5.66
MKSKGSIMACLILFSFTITTFINTETHSAFSN	7.73
MKSKGSIMACLILFSFTITTFINTETISAEED	4.14
MKSKGSIMACLILFSFTITTFINTETISAFRR	6.09
MKSKGSIMACLILFSFTITTFINTETISAFSD	6.02
MKSKGSIMACLILFSFTITTFINTETISAFSR	3.97
MKSKGSIMACLILFSFTITTFINTETISCFSN	7.73
MKSKGSIMACLILFSFTITTFINTETISDFSN	6.98
MKSKGSIMACLILFSFTITTFINTETISEFSN	7.72
